The source of these data is patent US20220146515A1 (XIAMEN INNODX BIOTECH, published 2022).

What all share (test): competition ELISA, antibody preincubated with target, AMH-coated plate
On the technique in general: In an ELISA, binding on a coated surface is turned into a signal by an enzyme label.

Assay [1] has as its target T1, AMH truncated antigen 31-44 (human).
T1 sequence (peptide): AVGTSGLIFREDLD

Assay [2] concerns the target T2, AMH truncated antigen 36-44 (human).
T2 sequence (peptide): GLIFREDLD

Assay [3] has as its target T3, AMH truncated antigen 37-43 (human).
T3 sequence (peptide): LIFREDL

In assay [4] the target is T4, AMH truncated antigen 38-44 (human).
T4 sequence (peptide): IFREDLD

The target of assay [5] is T5, AMH truncated antigen 39-45 (human).
T5 sequence (peptide): FREDLDW

The target in assay [6] is T6, AMH truncated antigen 41-47 (human).
T6 sequence (peptide): EDLDWPP

For assay [7], the target named is T7, AMH truncated antigen 41-50 (human).
T7 sequence (peptide): EDLDWPPGSP

Assay [8] has as its target T8, AMH truncated antigen 41-51 (human).
T8 sequence (peptide): EDLDWPPGSPQ

In assay [9] the target is T9, AMH truncated antigen 41-55 (human).
T9 sequence (peptide): EDLDWPPGSPQEPLC

The target in assay [10] is T10, AMH truncated antigen 42-50 (human).
T10 sequence (peptide): DLDWPPGSP

The target in assay [11] is T11, AMH truncated antigen 42-51 (human).
T11 sequence (peptide): DLDWPPGSPQ

The target of assay [12] is T12, AMH truncated antigen 61-75 (human).
T12 sequence (peptide): GDSNGSSSPLRVVGA

The target of assay [13] is T13, AMH3647-14 (Little mole rat sequence) (Little mole rat).
T13 sequence (peptide): GLIFLQDGMWSP

Assay [14] addresses T14, AMH3647-21 (Sheep sequence) (Sheep).
T14 sequence (peptide): TLIFQQGWDWPL

In assay [15] the target is T15, AMH3647-26 (Monkey sequence) (Monkey).
T15 sequence (peptide): GLIFREDLGWPP

Assay [16] addresses T16, AMH3647-5 (Diademed Sifaka sequence) (Diademed Sifaka).
T16 sequence (peptide): GLIFHEDWDWPP

Assay [17] deals with T17, AMH truncated antigen 256-355aa (human).
T17 peptide: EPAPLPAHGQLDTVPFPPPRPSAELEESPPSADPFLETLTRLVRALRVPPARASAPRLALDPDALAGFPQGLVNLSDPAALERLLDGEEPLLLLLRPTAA

Assay [18] has as its target T18, AMH truncated antigen 341-440aa (human).
T18 peptide: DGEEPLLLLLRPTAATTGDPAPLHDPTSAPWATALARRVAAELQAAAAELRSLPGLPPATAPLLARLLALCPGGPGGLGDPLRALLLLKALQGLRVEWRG

For assay [19], the target named is T19, AMH truncated antigen 426-525aa (human).
T19 peptide: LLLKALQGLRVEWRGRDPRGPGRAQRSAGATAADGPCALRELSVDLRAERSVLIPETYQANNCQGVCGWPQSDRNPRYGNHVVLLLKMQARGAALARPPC

Assay [20] has as its target T20, AMH truncated antigen 461-560aa (human).
T20 peptide: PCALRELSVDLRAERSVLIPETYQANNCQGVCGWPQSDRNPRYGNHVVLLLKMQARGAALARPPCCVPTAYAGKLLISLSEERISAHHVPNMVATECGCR

In assay [21] the target is T21, recombinant human AMH (anti-Mullerian Hormone) (human, UniProt P03971 25-560).
T21 construct: range 1-560; also called AMH antigen; AMH (1-560)
T21 sequence (looked up): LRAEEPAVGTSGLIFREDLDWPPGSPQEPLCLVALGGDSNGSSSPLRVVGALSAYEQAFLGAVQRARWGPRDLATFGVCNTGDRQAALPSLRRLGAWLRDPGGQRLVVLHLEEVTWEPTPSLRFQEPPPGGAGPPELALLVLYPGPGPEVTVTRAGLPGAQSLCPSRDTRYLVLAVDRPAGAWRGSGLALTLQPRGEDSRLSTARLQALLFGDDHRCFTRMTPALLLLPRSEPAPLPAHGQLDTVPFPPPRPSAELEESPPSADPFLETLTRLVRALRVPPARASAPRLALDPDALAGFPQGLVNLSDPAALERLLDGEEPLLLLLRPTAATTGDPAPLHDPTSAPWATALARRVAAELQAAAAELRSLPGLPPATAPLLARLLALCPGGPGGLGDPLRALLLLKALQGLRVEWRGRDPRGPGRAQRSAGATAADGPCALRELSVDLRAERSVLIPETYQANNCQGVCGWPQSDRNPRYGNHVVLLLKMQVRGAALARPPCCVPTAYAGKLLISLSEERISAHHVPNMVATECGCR

The target of assay [22] is T22, AMH truncated antigen 26-85 aa (human).
T22 peptide: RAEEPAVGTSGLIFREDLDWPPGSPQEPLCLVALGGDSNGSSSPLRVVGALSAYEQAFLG

For assay [23], the target named is T23, AMH truncated antigen 86-185aa (human).
T23 peptide: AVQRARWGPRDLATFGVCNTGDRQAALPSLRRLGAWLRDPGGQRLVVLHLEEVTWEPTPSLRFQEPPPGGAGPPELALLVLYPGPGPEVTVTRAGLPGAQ

Assay [24] has as its target T24, AMH truncated antigen 171-270aa (human).
T24 peptide: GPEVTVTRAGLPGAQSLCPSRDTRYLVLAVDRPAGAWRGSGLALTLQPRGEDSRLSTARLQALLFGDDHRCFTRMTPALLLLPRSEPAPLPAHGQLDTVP

B1: monoclonal antibody C9F2-2 (antibody, V domains shown)
VH: EVQLVESGGGLVKPGGSLKLSCAASGFAFSTYDMSWVRQTPEKRLEWVAYISPGGGATYYPDTVKGRFTISRDNAKNTLYLQMTSLKSEDTAMYYCAGRRDYYGMDYWGQGTSVTVSS
VL: DVVMTQTPLSLPVSLGDQASISCRSSQSLVHSNGNTYLHWYLQKPGQSPKLLIYKVSNRFSGVPDRFSGSGSGTDFTLKISRVEAEDLGVYFCSQSTHVPWTFGGGTKLEIK
notes: Mouse hybridoma antibody purified from ascites; the tie is indirect; also called hybridoma CCTCC NO: C2018183
In the case of B1, the percent inhibition in assay [1] came to 38%; in assay [2] it was 32%; in [3], 57%; in assay [4] it was 33%; in [5] it was 68%; in [6] it was 64%. The percent inhibition amounted to 65% in [7]; 71% in [8]; 68% in [9]; 57% in [10]; 60% in [11]; 35% in assay [12]. Besides, the percent inhibition in assay [13] was 29%; in assay [14] it was 10%; in [15] it was 61%; in [16], 32%; in assay [17], 1%; in assay [18], 10%. In addition, the percent inhibition was 1% in [19]; 6% in assay [20]; 92% in assay [21]; 99% in [22]; 2% in [23]; 0% in [24].
